From US20260258115A1 (MAPP BIOPHARMACEUTICAL, published 2026)

biological target: RSV F on RSV-A2 virus (Respiratory syncytial virus (RSV-A2)); experiment: cell-based or functional assay

Row | Binder | Neutralization IC50 (RSV subtype A) [µg/mL]
1 | ADI-41314 (antibody, V domains shown) VH: QVQLVQSGAEVKKPGSSVKVSCKAFGGIFSSYAISWVRQAPGQGLEWMGGIIPIFGTTKYAQKFQGRVTITADKSTSTVYMEVSSLRFEESAVYFCARAYCSGGTWYGGADYWGQGTLVTVSS VL: QSVLTQPPSVSVSPGQTARITCSGDVLPKQYAYWYQQKPGQAPLLVMYKDTERPSGIPERFSGSSSVTAVTLTISGVQAEDEADYYCQSADSTQELFGGGTKLTVL | > 25
2 | ADI-41312 (antibody, V domains shown) VH: QVQLQESGPGLVKPSGTLSLTCAVSGGSISSSNWWNWVRQPPGKGLEWIGEIYHSGRTNYNPSLKSRVSISIDKFKSQFSLNLNSVTAADTAVYYCARDLPGTPYDIVPGYYPGLRRHDAFDIWGQGTMVTVSS VL: not shown | > 25
3 | ADI-41316 (antibody, V domains shown) VH: QVQLVQSGGGVVQPGRSLRLSCAASGFTFNNYGMHWVRQAPGKGLEWVAVLSFDGINKYYADSARGRFTISRDNSKNTLYLQMNSLRAEDTALYYCAKDRQEYSSGWTHDACDIWGQGTMVTVSS VL: EIVMTQSPATLSVSPGERATLSCRASQNVNNNLAWYQQNPGQAPRLLIFGASTRATGIPARFSGSGSGTEFTLTISSLQSEDFAVYYCQQYNNWPRTFGQGTKLEIK | > 25
4 | ADI-41315 (antibody, V domains shown) VH: EVQLLESGPGLVKPSETLSLTCAVSGGSISNYYWSWIRQPPGKGLEWIAYISYSGTTNYNPSLESRVTISVDTSKNQFSLKLNSVTAADTAVYYCARHEFLVLPDVWGQGTLVTVSS VL: ETTLTQSPGTLSLSPGERATLSCRASQSVSSTFLAWYQQKPGQAPRLLIYAASSRATGIPDRFSGSGSGTDFTLIISRLEPEDFAVYYCQQYRSSPFSFGPGTKVEIK | > 25
5 | ADI-41296 (antibody, V domains shown) VH: EVQLVESGVEVKKPGESLKISCRGSGYTFYNYWIAWVRQKPGKGLEYMGTIYLDDSETIYSPSFQGEVTISADKSINTAYLQWNSLKASDTANYYCARQMDFYFDVWGRGTLVTVSS VL: SYELMQPPSVSVSPGQTARITCSGDPLPRESAYWYQQKPGQAPVVIIFNDIERPLGIPERFSGSRSGTTVTLTISGAQAEDEADYYCQSADSRKTFVFGTGTKLTVL | > 25
6 | ADI-41310 (antibody, V domains shown) VH: QVQLVQSGVEVKKPGESLKISCRGSGYSFYNYWIAWVRQKPGKGLEYMGTIYLDDSDTIYSPSFQGEVTISADKSINTAYLQWNSLKASDTANYYCARQMDFYFDVWGRGTLVTVSS VL: SYELTQPPSVSVSPGQTARITCSGDPLPRESAYWYQQKPGQAPVVVIFNDIERPLGIPGRFSGSRSGATATLTINGAQAEDEADYYCQSADSRKTFVFGAGTKLTVL | > 25
7 | ADI-41304 (antibody, V domains shown) VH: EVQLVESGPGLVKPSQTLSLTCTVSGGSIRSHDYYWSWIRQPPGKGLEWIGYSYYSGSTYYNPSLKSRVIISLDTSKNQFSLNLTSVTAADTAMYYCARDRPHTSSWIPGWFDPWGQGTLVTVSS VL: SYELTQPPSASGTPGQRVTISCSGSSSNIGSNTVSWYQQFPGKAPKLLIYSNNERPSGGPDRFSGSKSGTSASLAIGGLQSEDEANYYCAAWDDSLYAVVFGGGTKLTVL | > 25
8 | ADI-41293 (antibody, V domains shown) VH: QVQLQQSGPGLAKPSQTLSLTCTVSGGPISGVDYYWSWIRQPPGKGLEWIGYIYYSGSTYYNPSLKSRVTISVDTSKKQFSLKMSSVTAADTAVYYCARDVGATPYYYYGMDVWGQGTTVTVSS VL: DIVLTQSPDTLSLSPGERATLSCRASQSVRSNYLAWYQHKPGQAPRLLIYGASSRVAGIPDRFSGSGSGTDFTLTISRLEPEDFAVYYCQQYGSSPPSVTFGGGTKVEIK | 0.159
9 | ADI-41307 (antibody, V domains shown) VH: QVQLVESGGGLVKPGGSLRLSCAASGFPLSPYALNWVRQAPGKGLEWVSSITSSSAYIYYADSVKGRFTVSRDNPTNSLYLQMNSLRAEDTAVYYCARTIPQHYYDNNGDYYNYGMDVWGQGTTVTVSS VL: DIVLTQSPATLSVSPGQRITLSCRASQTVRSNLAWYQQKPGQPPRLLIYGASTRATGVPARFTGSGSGTEFTLTITSLQSDDFAVYYCHQYNDRPLTFGPGTKVEIK | > 25
10 | ADI-41305 (antibody, V domains shown) VH: QVTLKESGPGLVKPSQTLSLTCTVSGGSISGGGYYWSWIRQLPGKGLQWIGCIYDSGTTYYNPSLKSLVTISIDTSKNQFSLKLSSVTAADTAVYYCARGGSLDDFWSATWYFALWGRGTLVTVSS VL: EIVLTQSPGTLSLSPGERATLSCRASQSVSSNYLAWYQQKPGQAPRLLIYGASSRATGIPDRFSGSGSGTDFTLTISRLEPEDFAFYYCQQYGRSPYTFGPGTKLEIK | > 25
11 | ADI-41306 (antibody, V domains shown) VH: QVQLVESGPRLVKPSQTLSLTCTVSGGSIYRGDYDWNWIRQPPGKGLEWIGYISYTGNTHYNSSLKSRLSISADTSGTHFSLKLSSVTAADTAIYYCARDVGYGGNAAHYYYYAMDVWGQGTTVTVSS VL: ETTLTQSPATLSLSPGERATLSCRASQSVGSSLAWYQQKVGQAPRLLIYDASSRVTGIPARFSGSGSGTDFTLTISSLEPGDFAVYYCQQRSNSLTFGGGTKVEIK | 0.173
12 | ADI-41308 (antibody, V domains shown) VH: EVQLVESGPGLVKPSQTLSLTCAISGDSVSSNSAAWNWIRQSPSRGLERMGRTYYRSKWYDDYAVSVKSRIIINPDTSKNQFSLQLNSVTPEDTAVYYCARGISTFGGVIYALEIWGQGTMVTVSS VL: SYVLTQPASVSGSPGQSITISCTGLTSDVGGYNFVSWYQQHPGKAPKLIIYDVSHRPSGVSNRFSGSESGNTASLTISGLQAEDEAHYYCSSYTRTSIVVFGGGTKLTVL | > 25
13 | ADI-41297 (antibody, V domains shown) VH: QVQLVQSGAEVKKPGSSVKVSCKASGGTFSTDAISWVRQAPGQGLEWMGGIIPLFGTANYAQKFQGRVTITADESTSTAYMELNSLRSVDTAVYYCGRTGAFDGEVVVRPHLDLWGQGTLVTVSS VL: QPVLTQPASVSGSPGQSITISCTGTSSDVGGYDYVSWYQHHPGKAPKLMIYEVSNRPSGVSNRFSGSKSGNTASLTISGLQADDEAAYYCSSYTRSNTLLFGGGTKLTVL | > 25
14 | ADI-41292 (antibody, V domains shown) VH: EVQLLESGGGVVQPGRSLRLSCAASGFSFSSYGIHWVRQAPGKGLECVALMSYDGSEKYYADSVKGRFTISRDNSKNTLYLHMNSLRREDTAVYYCAKGSHLRWSHLDYYFHLWGRGTLVTVSS VL: DIVMTQSPSTLSASVGDRVTITCRASQSLSTWLAWYQQKPGKAPKLLISDASNLESGVPSRFSGRGSGTEFTLTISGLQPDDFATYYCQQERTFGQGTKVDIK | > 25
15 | ADI-41309 (antibody, V domains shown) VH: EVQLLESGPGLVKPSQTLSLTCTVSGGSISSGDYYWSWVRQPPGKGLEWIGNIYHSGSTYYKPSLKSRVSISLDTSKNQFSLKLSSVTAADTAIYYCARDGGENYVWGTFRFLDVWGQGTTVTVSS VL: DIRLTQSPGTLSLSPGERATLSCRASQSVSSSYLAWYQQKPGQAPRLLIYGVSSRATGIPDRFSGSGSGTDFTLTINRLEPEDFALYHCQQYGSSPHTFGQGTKVEIK | > 25
16 | ADI-41299 (antibody, V domains shown) VH: EVQLVESGGGLVHPGRSLRLSCGASGFTFRSFAMHWVRQAPGKGLEWVAVISYDGSDEYYADSVKGRFTISRDNSRNTLFLQMNRLRPEDTAIYYCARAYCSTSNCPVLDYWGQGTLVTVSS VL: QSVLIQPASVSGSPGQSITISCTGTSSDVGGYSLVSWYQQHPGKAPKLIIFEGNKRPAGVSDRFSGSKYGDTASLTISGLQAEDEADYYCCSYAGGHSVFGGGTKVTVL | > 25
17 | ADI-41311 (antibody, V domains shown) VH: QVTLKQSGPALVKPTQTLTLTCTFSGFSLSTKRMGVSWIRQPPGKALEWLARIDWDDDKYYSTSLRTRLTISKDTSKNQVVLTMTDMDPVDTATYYCARIQPYTSGGYYSYYFDYWGQGTLVTVSS VL: DIQVTQSPSSLSASIGDRVTITCRASQTIASYLNWYQQKPGKAPKLLIYIASSLQSGVPSRFSGSGSGTDFTLTISTLQPEDFATYYCQQSYGTPWTFGQGTKVEIK | > 25
18 | ADI-41303 (antibody, V domains shown) VH: QVQLVQSGGGLVRPGGSLRVSCAASGFIFNNYALTWVRQAPGKGLEWVSAISGSGSSTYYADSVKGRFTISRENSNNRLYLQLSGLRAEDTAVYFCARVRGLVWFEGRIDPYPNVFDYWGQGTLVTVSS VL: DIVLTQSPGTLSLSPGERATLSCRASQSVSNDYLAWYQQKPGQAPRLLIYDASSRAIGIPDRFSGSGSGTDFTLIISRLEPEDFAVYYCHHPGKFGQGTKVEIK | > 25
19 | ADI-41294 (antibody, V domains shown) VH: EVQLLESGGGLVQPGGSLRLSCAASGFTFSAYEMNWVRQAPGKGLEWVSYISSSGSNKHYADSVKGRFTISRDNAKNSLHLHMNSLRAEDTALYYCTRPHQEEWELLPNDAFDLWGQGTMVTVSS VL: QSALTQPPSASGSPGQSVTISCTGTSTDVGAYTYVSWYQQHPGKAPKLIIYEVYKRPSGVPNRFFGSKSGNTASLTVSGLQAEDEADYYCSSYGGSNNFGLFGGGTKLIVL | 0.0805
20 | ADI-41302 (antibody, V domains shown) VH: QVQLVESGGGVVQPGRSLRLSCAASGFTFSSYAMQWVRQAPGKGLEWVAVMTNDGDDKYYADSVRGRFTISRDNSKNTLYLQMNNLRPEDTAVYYCARDLFEWWELLGYCYAMDVWGQGTTVTVSS VL: QSVLTQPPSASGSPGQSVTISCTGTSSDVGAYNYVSWYQQHPGKAPKLIIYEVYKRPSGVPDRFFGSKSGNTASLTVSGLQAEDEADYYCSSYAGSNTLGVFGGGTKVTVL | 0.006
21 | ADI-41313 (antibody, V domains shown) VH: EVQLVESGAEVKKPGASVKVSCKASGYTFNNYDISWVRQAPGQGLEWMGWISTYNGNTNYAQKFQGRATMTTDTSTTTAYMELRSLRSDDSAIYYCARVYCGGDCHNPFFLYFDLWGRGTLVTVSS VL: SYVLTQPLSVSVALGQTARITCGGNNIGSKSVHWYQQKPGQAPLLVIYRDNNRPSGIPERFSGSTSGNTATLTISRAQAGDEADYSCQVWDNSDWVFGGGTKLTVL | > 25
